Test results: article PMC8764530, “Pseudomonas aeruginosa C-Terminal Processing Protease CtpA Assembles into a Hexameric Structure That Requires Activation by a Spiral-Shaped Lipoprotein-Binding Partner” (mBio, 2022)
Changes are numbered by the printed parent chain. Names and notes keep the numbering of the source.

B1: CtpA(ΔC6) (enzyme)
chain: SAPLPLDELRTFAEVLDRVKAAYVEPVDDKTLLENAIKGMLSNLDPHSAYLGPEDFAELQESTSGEFGGLGIEVGSEDGFIKVVSPIDDTPAARAGIQPGDLIVQIDGKPTKGQSMTEAVDSMRGKAGSPITLTIVRDGGRPFDVELKRAIIKVKSVKSQVLEPGYAYLRITQFQVNTGEEVVKALNQLRKDNKGRLKGLVLDLRNNPGGVLQSAVEVADAFLTKGLIVYTKGRIANSELRFSADPADPSDKVPLVVLINGGSASAAEIVAGALQDQKRAILMGTDSFGKGSVQTVLPLNNDRALKLTTALYYTPNGRSIQAQGIVPDIEVGRAKVTQERSSFEGFKEADLQGHLANGNGGADRPTGKRAAPSERPQDSDYQLSQALSLLKGL
notes: Pseudomonas aeruginosa CtpA, ΔN37 construct (from amino acid 38) with the last six residues Ser-431 to Asn-436 removed; also called CtpA(ΔC6) dimer; source: E. coli BL21(DE3), purified (HiTrap-Ni, thrombin, HiTrap-Q, Superdex 200); not shown: His6, N-terminal, cleaved
B2: CtpA-L426K L430K (enzyme)
chain: SAPLPLDELRTFAEVLDRVKAAYVEPVDDKTLLENAIKGMLSNLDPHSAYLGPEDFAELQESTSGEFGGLGIEVGSEDGFIKVVSPIDDTPAARAGIQPGDLIVQIDGKPTKGQSMTEAVDSMRGKAGSPITLTIVRDGGRPFDVELKRAIIKVKSVKSQVLEPGYAYLRITQFQVNTGEEVVKALNQLRKDNKGRLKGLVLDLRNNPGGVLQSAVEVADAFLTKGLIVYTKGRIANSELRFSADPADPSDKVPLVVLINGGSASAAEIVAGALQDQKRAILMGTDSFGKGSVQTVLPLNNDRALKLTTALYYTPNGRSIQAQGIVPDIEVGRAKVTQERSSFEGFKEADLQGHLANGNGGADRPTGKRAAPSERPQDSDYQLSQALSKLKGKSVTRGN
notes: Pseudomonas aeruginosa CtpA, ΔN37 construct (amino acid 38 to the C terminus, Asn-436) with L426K and L430K; also called LLKK; source: E. coli BL21(DE3), purified (HiTrap-Ni, thrombin, HiTrap-Q, Superdex 200); not shown: His6, N-terminal, cleaved
B3: CtpA-L426A L430A (enzyme)
chain: B2 chain with K389A, K393A
notes: Pseudomonas aeruginosa CtpA, ΔN37 construct (amino acid 38 to the C terminus, Asn-436) with L426A and L430A; also called LLAA; source: E. coli BL21(DE3), purified (HiTrap-Ni, thrombin, HiTrap-Q, Superdex 200); not shown: His6, N-terminal, cleaved

Target: the molecule itself
Assay: SEC; gel filtration of CtpA proteins, Superdex 200 prep-grade (16 × 600 mm), 10 mM Tris pH 8.0, 150 mM NaCl

| Protein | stoichiometry N |
| --- | --- |
| B1 | 2 |
| B2 | ~2 |
| B3 | ~2 |
